# Literature values in paper PMC7174325.
# Like-named read-outs stand apart in the source and are kept apart here.
# Experiments:
# BAK (Homo sapiens) = BAK (Homo sapiens) (UniProt Q16611); test: ITC
# BAX (Homo sapiens) = BAX (Homo sapiens) (UniProt Q07812); test: ITC
# BAD (Homo sapiens) [1] = target: BAD (Homo sapiens) (UniProt Q92934)
# BAD (Homo sapiens) [2] = target: BAD (Homo sapiens) (UniProt Q92934); remark: listed apart in the source
# Sequence of BAD (Homo sapiens) (Q92934 whole entry): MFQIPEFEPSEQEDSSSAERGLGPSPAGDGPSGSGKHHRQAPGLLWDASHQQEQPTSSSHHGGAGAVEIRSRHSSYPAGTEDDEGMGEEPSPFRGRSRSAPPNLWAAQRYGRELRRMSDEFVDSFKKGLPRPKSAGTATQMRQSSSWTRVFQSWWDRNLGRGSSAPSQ
# Sequence of BCL-w (Q92843 2-193): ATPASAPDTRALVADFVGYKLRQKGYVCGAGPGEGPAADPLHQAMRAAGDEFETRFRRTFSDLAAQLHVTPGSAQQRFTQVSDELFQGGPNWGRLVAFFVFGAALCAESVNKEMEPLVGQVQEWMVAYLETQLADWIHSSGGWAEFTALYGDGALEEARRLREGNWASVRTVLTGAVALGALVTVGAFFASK
# Sequence of BAK (Homo sapiens) (Q16611 2-211): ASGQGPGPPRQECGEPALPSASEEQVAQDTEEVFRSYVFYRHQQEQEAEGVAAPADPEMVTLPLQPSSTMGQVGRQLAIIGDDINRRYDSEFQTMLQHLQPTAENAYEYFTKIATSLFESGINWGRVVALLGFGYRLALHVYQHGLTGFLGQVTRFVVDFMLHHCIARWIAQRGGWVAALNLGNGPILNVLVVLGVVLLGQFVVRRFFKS
# Sequence of BAX (Homo sapiens) (Q07812 whole entry): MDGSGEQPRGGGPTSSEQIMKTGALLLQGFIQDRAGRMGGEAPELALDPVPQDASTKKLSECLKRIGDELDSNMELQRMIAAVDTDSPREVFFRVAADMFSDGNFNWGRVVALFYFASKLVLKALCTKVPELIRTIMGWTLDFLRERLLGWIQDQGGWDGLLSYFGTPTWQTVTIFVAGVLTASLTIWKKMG
# Sequence of BCL-w monomer (Q92843 2-193): as the sequence (Q92843 2-193) above
# Sequence of BCL-w homodimer (Q92843 2-193): as above
substance,measurement,setting,value
BCL-w (from UniProt Q92843),Kd,BAK (Homo sapiens),0.114 µM
same,Kd,BAX (Homo sapiens),0.0229 µM
BCL-w homodimer (from UniProt Q92843),Kd,BAD (Homo sapiens) [1],0.15 µM
BCL-w monomer (from UniProt Q92843),Kd,BAD (Homo sapiens) [2],0.014 µM
